Test results reported in patent US20250388669A1 (published 2025).

Key:
[1] = target: T1, CD40 (human, UniProt P25942 21-193); experiment: CD40 binding (method not given)
T1 construct: In the reporter assay it is whole, on GS-H2-huCD40 cells; also called huCD40

[2] = target: T2, CD137 (human, UniProt Q07011 24-186); experiment: CD137 binding (method not given)
T2 construct: In the reporter assay it is whole, on GS-H2-huCD137 cells; also called 4-1BB; huCD137

T1 sequence (P25942 21-193 limits assumed): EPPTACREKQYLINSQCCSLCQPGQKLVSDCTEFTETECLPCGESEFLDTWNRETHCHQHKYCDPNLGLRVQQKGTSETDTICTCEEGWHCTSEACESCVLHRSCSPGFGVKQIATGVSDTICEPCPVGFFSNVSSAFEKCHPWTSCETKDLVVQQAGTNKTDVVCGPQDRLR

Binder	EC50 [1]	EC50 [2]
Ly2279 (bispecific antibody, B7H3 Fabs, central CD40 Fv) chain 1: not shown chain 2: QVQLVQSGAEVKKPGASVKVSCKASGYTFTSYVMHWVRQKPGQGLEWIGYINPYNEGTESTDKFKGRATMTSDKSTSTVYMELSSLRSEDTAVYYCASIYYGYEGTYFGVWGQGTLVTVSSASTKGPSVFPLAPSSKSTSGGTAALGCLVKDYFPEPVTVSWNSGALTSGVHTFPAVLQSSGLYSLSSVVTVPSSSLGTQTYICNVNHKPSNTKVDKKVEPKSCGGGGSGGGGSGGGGSGGGGSDIQMTQSPSSVSASVGDRVTITCRASQGIYSWLAWYQQKPGKAPNLLIYTASTLQSGVPSRFSGSGSGTDFTLTISSLQPEDFATYYCQQANIFPLTFGGGTKVEIKGGGGSDKTHTCPPCPAPEAAGPSVFLFPPKPKDTLMISRTPEVTCVVVDVSHEDPEVKFNWYVDGVEVHNAKTKPREEQYNSTYRVVSVLTVLHQDWLNGKEYKCKVSNKALPAPIEKTISKAKGQPREPQVYTLPPSREEMTKNQVSLSCAVKGFYPSDIAVEWESNGQPENNYKTTPPVLDSDGSFFLVSKLTVDKSRWQQGNVFSCSVMHEALHNRFTQKSLSLSPG light: EIVLTQSPATLSLSPGERATLSCRASSSVSYMHWYQQKPGQAPRPWIYATSNLASGIPARFSGSRSGTDYTLTISSLEPEDFAVYYCQQWSSNTLTFGGGTKVEIKRTVAAPSVFIFPPSDEQLKSGTASVVCLLNNFYPREAKVQWKVDNALQSGNSQESVTEQDSKDSTYSLSSTLTLSKADYEKHKVYACEVTHQGLSSPVTKSFNRGEC	1.49 µg/mL	
Ly2281 (bispecific antibody, PD-1 Fabs, central CD137 Fv) chain 1: QVTLKESGPALVKPTQTLTLTCTFSGFSLSTSGTCVSWIRQPPGKALEWLATICWEDSKGYNPSLKSRLTISKDTSKNQAVLTMTNMDPVDTATYYCARREDSGYFWFPYWGQGTLVTVSSASTKGPSVFPLAPSSKSTSGGTAALGCLVKDYFPEPVTVSWNSGALTSGVHTFPAVLQSSGLYSLSSVVTVPSSSLGTQTYICNVNHKPSNTKVDKKVEPKSCGGGGSGGGGSGGGGSGGGGSQVQLVQSGAEVKKPGASVKVSCKASGYTFAGFEMHWVRQAPGQGLEWMGAIDPKTGGTDYNQKFKDRVTMTRDTSISTAYMELSRLRSDDTAVYYCARDLGYFDVWGQGTLVTVSSGGGGSDKTHTCPPCPAPEAAGPSVFLFPPKPKDTLMISRTPEVTCVVVDVSHEDPEVKFNWYVDGVEVHNAKTKPREEQYNSTYRVVSVLTVLHQDWLNGKEYKCKVSNKALPAPIEKTISKAKGQPREPQVYTLPPSREEMTKNQVSLWCLVKGFYPSDIAVEWESNGQPENNYKTTPPVLDSDGSFFLYSKLTVDKSRWQQGNVFSCSVMHEALHNHYTQKSLSLSPG chain 2: QVTLKESGPALVKPTQTLTLTCTFSGFSLSTSGTCVSWIRQPPGKALEWLATICWEDSKGYNPSLKSRLTISKDTSKNQAVLTMTNMDPVDTATYYCARREDSGYFWFPYWGQGTLVTVSSASTKGPSVFPLAPSSKSTSGGTAALGCLVKDYFPEPVTVSWNSGALTSGVHTFPAVLQSSGLYSLSSVVTVPSSSLGTQTYICNVNHKPSNTKVDKKVEPKSCGGGGSGGGGSGGGGSGGGGSDIQMTQSPSSLSASVGDRVTITCRASQDIRSNLNWYQQKPGGAVKLLIYYTSRLHSGVPSRFSGSGSGTDYTLTISSLQPEDFATYFCQQSEKLPRTFGGGTKVEIRGGGGSDKTHTCPPCPAPEAAGPSVFLFPPKPKDTLMISRTPEVTCVVVDVSHEDPEVKFNWYVDGVEVHNAKTKPREEQYNSTYRVVSVLTVLHQDWLNGKEYKCKVSNKALPAPIEKTISKAKGQPREPQVYTLPPSREEMTKNQVSLSCAVKGFYPSDIAVEWESNGQPENNYKTTPPVLDSDGSFFLVSKLTVDKSRWQQGNVFSCSVMHEALHNRFTQKSLSLSPG light: NIQMTQSPSSLSASVGDRVTITCKAGQNVNNYLAWYQQKPGKAPKVLIFNANSLQTGVPSRFSGSGSGTDFTLTISSLQPEDFATYYCQQYNSWPTFGGGTKVEIKRTVAAPSVFIFPPSDEQLKSGTASVVCLLNNFYPREAKVQWKVDNALQSGNSQESVTEQDSKDSTYSLSSTLTLSKADYEKHKVYACEVTHQGLSSPVTKSFNRGEC		2.56 µg/mL
TM383 (antibody, V domains shown, Parent mAb; also called Anti-CD40 TM383; parent CD40 mAb) VH: not shown VL: DIQMTQSPSSVSASVGDRVTITCRASQGIYSWLAWYQQKPGKAPNLLIYTASTLQSGVPSRFSGSGSGTDFTLTISSLQPEDFATYYCQQANIFPLTFGGGTKVEIK	0.48 µg/mL	
